Test results reported in the Human Domainome abundance scans (Beltran et al. 2025).
± gives the uncertainty stated by the source.

B1: Far upstream element-binding protein 1, residues 184 to 257; numbered along this chain, Q96AE4 (parent)
chain: GNAVQEIMIPASKAGLVIGKGGETIKQLQERAGVKMVMIQDGPQNTGADKPLRITGDPYKVQQAKEMVLELIRD

Variants of: B1
Experiment: abundance fitness (aPCA) (normalised: wild type 0, dead -1); higher = more abundant; growth selection in yeast, the domain comes from the species named
Details: Homo sapiens

Abundance fitness, by site and new letter:
Q29: H -0.557 ± 0.062; D -0.602 ± 0.06; Y -0.67 ± 0.072; T -0.247 ± 0.038; W -0.345 ± 0.036; A -0.018 ± 0.032; E -0.026 ± 0.034; K -0.189 ± 0.04; I -0.342 ± 0.06; M -0.044 ± 0.042; R -0.137 ± 0.027; V -0.351 ± 0.037; C -0.2 ± 0.045; S -0.029 ± 0.031; L -0.45 ± 0.033; P -0.748 ± 0.044; G -0.142 ± 0.029
E23: Q -0.021 ± 0.039; Y -0.067 ± 0.046; W -0.087 ± 0.032; L -0.051 ± 0.03; R 0.136 ± 0.026; A 0.042 ± 0.03; T 0.041 ± 0.034; M -0.041 ± 0.038; N -0.026 ± 0.055; K 0.062 ± 0.039; F -0.101 ± 0.05; S 0.043 ± 0.031; C -0.011 ± 0.043; V -0.063 ± 0.03; D -0.037 ± 0.044; G 0.018 ± 0.027; H 0.072 ± 0.049; I -0.051 ± 0.057; P -0.434 ± 0.038
M38: S -0.205 ± 0.034; T -0.21 ± 0.035; L 0.035 ± 0.031; Y -0.094 ± 0.057; I -0.036 ± 0.048; P -0.287 ± 0.04; C -0.166 ± 0.044; D -0.392 ± 0.055; H -0.13 ± 0.053; G -0.324 ± 0.028; A -0.183 ± 0.032; F 0.037 ± 0.052; V -0.007 ± 0.031; E -0.163 ± 0.039; W -0.032 ± 0.034; R -0.444 ± 0.029
Q40: F -0.027 ± 0.052; H -0.146 ± 0.057; E -0.067 ± 0.037; C -0.024 ± 0.049; D -0.008 ± 0.05
K35: W -0.308 ± 0.036; V -0.124 ± 0.03; P -0.472 ± 0.042; D -0.07 ± 0.046; I -0.158 ± 0.055; N 0.023 ± 0.052; S -0.116 ± 0.032; Q 0.015 ± 0.039; C -0.11 ± 0.043; F -0.261 ± 0.053; G -0.071 ± 0.027; E 0.003 ± 0.035; H 0.003 ± 0.058; R -0.007 ± 0.027; T -0.093 ± 0.038; M -0.154 ± 0.039; L -0.118 ± 0.03; Y -0.248 ± 0.055
R31: A -0.036 ± 0.032; H 0.032 ± 0.054; Y -0.168 ± 0.056; E 0 ± 0.033; G -0.106 ± 0.028; C -0.084 ± 0.044; W -0.221 ± 0.037; F -0.155 ± 0.05
